Experimental data taken from patent publication US20260217863A1 (UIF UNIVERSITY INDUSTRY FOUNDATION YONSEI UNIVERSITY, published 2026).
Substitutions are numbered along the chain they refer to.

T1: Ribonuclease A (Type II-A) from bovine pancreas (bovine, UniProt P61823 27-150)
T1 sequence (looked up): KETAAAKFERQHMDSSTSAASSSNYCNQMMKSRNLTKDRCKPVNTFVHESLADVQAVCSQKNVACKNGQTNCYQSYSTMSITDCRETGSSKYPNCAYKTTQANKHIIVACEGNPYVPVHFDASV

B1: Peptide-2, synthetic peptide with the CDR3 sequence of the screened clone (peptide)
peptide: YGPVGRVKRDD
notes: also called peptides-2
B2: Peptide-1, synthetic peptide with the CDR3 sequence of the screened clone (peptide)
peptide: CGPDSDVMTDF
notes: Bought from Peptron, 90% purity; Peptide-1 is tied to the CDR3 of clone 5 / Fv-1 by the order of the names only; also called peptides-1
B3: Peptide-3, synthetic peptide with the CDR3 sequence of the screened clone (peptide)
peptide: DGTAKKSRKDD
notes: also called peptides-3
B4: Fv-1, expressed soluble Fv antibody of clone 5 (His-tag-TdTomato-VH) (other)
chain: EVQLVESAAEVRRPGASVKITCKASGYSFSTYGIQWMRQAPGQRPEWLGWIHAGTGGTKYSRKFQGRITITRDTSANTVYLDLNSLTSEDTAVYYCARCGPDSDVMTDFWGQGTTVTVSS
notes: Fusion protein made in E. coli from a recombinant plasmid (pJS001 to pJS003, not tied one by one); molecular weight estimated 69.2 kDa; No light chain; also called expressed Fv antibody; TdTomato-labeled Fv antibody; not shown: His-tag; TdTomato fluorescent protein
B5: Fv-2, expressed soluble Fv antibody of clone 23 (His-tag-TdTomato-VH) (other)
chain: B4 chain with C99Y, D102V, S103G, D104R, M106K, T107R, F109D
notes: Fusion protein made in E. coli; 69.2 kDa; No light chain; not shown: His-tag; TdTomato fluorescent protein
B6: Fv-3, expressed soluble Fv antibody of clone 39 (His-tag-TdTomato-VH) (other)
chain: B4 chain with C99D, P101T, D102A, S103K, D104K, V105S, M106R, T107K, F109D
notes: as for B5

Tests used:
[1] = molecular target: RNase A contained in the actual serum sample; experiment: cell-based or functional assay
[2] = molecular target: RNase A contained in the pig swab actual sample (pig (sample: pig swab)); experiment: cell-based or functional assay
[3] = molecular target: RNase A contained in the saliva swab actual sample; experiment: cell-based or functional assay
[4] = molecular target: T1, Ribonuclease A (Type II-A) from bovine …; experiment: cell-based or functional assay
[5] = molecular target: T1, Ribonuclease A (Type II-A) from bovine …; experiment: SPR biosensor, RNase A immobilized on the Au chip, peptide in solution
Procedure: (§1) Binding analysis of the expressed FV antibody and synthesized peptides against RNase A was performed using an SPR (Surface Plasmon Resonance) biosensor from I-Cluebio (Seongnam, Korea). RNase A was immobilized on the gold surface of the SPR chip used in the SPR biosensor to conduct the binding analysis. For the manufacture of the SPR chip, a 2 nm thick titanium adhesive layer and a 48 nm thick gold surface were consecutively sputter-coated onto BK-7 glass (1×1 cm²). […] To analyze the binding of the expressed Fv antibody to RNase A, Fv antibodies in the concentration range of 0.37-100 nM were reacted using PBS buffer as the […] through association (10 minutes), equilibrium (5 minutes), and dissociation (10 minutes) steps. The washing buffer and total SPR measurements were performed at a flow rate of 15 μL/min. For the binding analysis of the synthesized peptides against RNase A, peptides in the concentration range of 0.37-100 nM were reacted using PBS buffer as the washing buffer through association (10 minutes), equilibrium (5 minutes), and dissociation (10 minutes) steps, and total SPR measurements were conducted at a flow rate of 15 μL/min.
Using the screened CDR3 amino acid sequences, the CDR3 regions of the screened Fv antibodies were synthesized as peptides, and the amino acid sequences were determined from the nucleotide sequences of the CDR3 regions as summarized in Table 7. These synthetic peptides (Peptide-1, Peptide-2, Peptide-3) and Fv antibodies (Fv-1, Fv-2, Fv-3) were identical to the amino acid sequences of the CDR3 regions of the screened clones. The expression of the Fv antibodies was confirmed using SDS-PAGE, and the molecular weight of the Fv antibodies was estimated to be 69.2 kDa as shown in FIG. 9. The affinity constant (KD) of the synthetic peptides and the expressed Fv antibodies against RNase A was estimated using an SPR biosensor.

[6] = molecular target: T1, Ribonuclease A (Type II-A) from bovine …; experiment: SPR, RNase A immobilized on the Au chip, fit of SPR signal against peptide concentration. The label is unnamed: it is printed in the light grey of the Peptide-1 marker at the top end of that curve, and agrees with the 1.3 ± 0.1 µM of the text.
Procedure: RNase A was immobilized on the gold surface of the SPR chip used in the SPR biosensor to conduct the binding analysis. For the manufacture of the SPR chip, a 2 nm thick titanium adhesive layer and a 48 nm thick gold surface were consecutively sputter-coated onto BK-7 glass (1×1 cm²). […] To analyze the binding of the expressed Fv antibody to RNase A, Fv antibodies in the concentration range of 0.37-100 nM were reacted using PBS buffer as the […] through association (10 minutes), equilibrium (5 minutes), and dissociation (10 minutes) steps. The washing buffer and total SPR measurements were performed at a flow rate of 15 μL/min. […]
Using the screened CDR3 amino acid sequences, the CDR3 regions of the screened Fv antibodies were synthesized as peptides, and the amino acid sequences were determined from the nucleotide sequences of the CDR3 regions as summarized in Table 7. […] The SPR signal was plotted according to the concentration of the synthetic peptides, and the affinity constants (KD) of these synthetic peptides were calculated through a fitting process.

[7] = molecular target: T1, Ribonuclease A (Type II-A) from bovine …; experiment: SPR biosensor, RNase A immobilized on the Au chip, expressed Fv antibody in solution
Procedure: as §1
Using the screened CDR3 amino acid sequences, the CDR3 regions of the screened Fv antibodies were synthesized as peptides, and the amino acid sequences were determined from the nucleotide sequences of the CDR3 regions as summarized in Table 2. These synthetic peptides (Peptide-1, Peptide-2, Peptide-3) and Fv antibodies (Fv-1, Fv-2, Fv-3) were identical to the amino acid sequences of the CDR3 regions of the screened clones. The expression of the Fv antibodies was confirmed using SDS-PAGE, and the molecular weight of the Fv antibodies was estimated to be 69.2 kDa as shown in FIG. 9. The affinity constants (KD) of these synthetic peptides and the expressed Fv antibodies against RNase A were estimated using an SPR biosensor.

[8] = molecular target: T1, Ribonuclease A (Type II-A) from bovine …; experiment: cell-based or functional assay; remark: listed apart in the source

Binder | decrease of RNase A activity after approximately 27 minutes, cCMP assay, serum actual sample, 1 µM inhibitor [1] [%] | decrease of RNase A activity after approximately 27 minutes, cCMP assay, pig swab actual sample, 1 µM inhibitor [2] [%] | decrease of RNase A activity after approximately 27 minutes, cCMP assay, saliva swab actual sample, 1 µM inhibitor [3] [%] | IC50, cCMP assay (hydrolysis of 2',3'-cyclic CMP, absorbance at 286 nM) [4] [nM] | IC50 by linear regression, RNA probe assay [4] [µM] | IC50 for the inhibition of RNase A activity, HeLa total RNA cleavage, agarose gel image [4] [nM] | peptide concentration at which the RNase inhibition activity is over 50%, HeLa total RNA cleavage, agarose gel [4] [µM] | relative inhibition level after 60 minutes, RNA probe assay (fluorophore and quencher), peptide at 1 µM [4] [%] | Kd [5] [nM] | Kd [6] [nM] | Kd [7] [nM] | Fv-antibody concentration at which the RNase inhibitory activity is over 50%, HeLa total RNA cleavage, agarose gel [4] [nM] | IC50, RNase activity analysis with the RNA probe [4] [nM] | IC50 for RNase A activity inhibition, HeLa total RNA cleavage, agarose gel image, dose-response curve fitting [4] [nM] | IC50 (RNase A activity after treatment with Fv-3 beads, 1/10 diluted Pig Swab, RNase A 10 ng, RNA gel) [8] [nM] | IC50 (RNase A activity after treatment with Fv-3 beads, 1/10 diluted Saliva Swab, RNase A 10 ng, RNA gel) [8] [nM] | IC50 (RNase A activity after treatment with Fv-3 beads, 1/10 diluted Serum, RNase A 10 ng, RNA gel) [8] [nM]
B1 | ~55 | ~41 | ~44 | 373 | 3.6 | 658 | > 1 | 53.2 | 1300 | – | – | – | – | – | – | – | –
B2 | ~53 | ~41 | ~30 | 607 | 8.1 | 995 | > 1 | 54.4 | 1300 | 1350 | – | – | – | – | – | – | –
B3 | ~60 | ~41 | ~35 | 356 | 0.4 | 464 | > 1 | 50.3 | 3700 | – | – | – | – | – | – | – | –
B4 | ~55 | ~61 | ~42 | 194 | – | – | – | – | – | – | 17.5 | ≥ 350 | 90.2 | 234 | – | – | –
B5 | ~55 | ~49 | ~63 | 236 | – | – | – | – | – | – | 28.8 | ≥ 350 | 65.3 | 366 | – | – | –
B6 | ~52 | ~55 | ~60 | 196 | – | – | – | – | – | – | 33.9 | ≥ 350 | 98.8 | 436 | 632 | 838 | 1010
